Laboratory results from a protein production outcome set (Wang et al. 2014).

Assay: label from the status in PepcDB records

| Sequence | protein production |
| --- | --- |
| MEDGVTPPLLITEKDTTMIRVKEEVKKQLWLSAPLIGVSLLQYSLQVISVMFVGHLGSLPLSAASIATSFASVTGFTFLLGTASALETLCGQAYGAKLYGKLGIQMQRAMFVLLILSVPLSIIWANTEQILVLVHQDKSIASVAGSYAKYMIPSLFAYGLLQCINRFLQAQNNVFPVFVCSGITTCLHLLLCWLFVLKTGLGYRGAALAISVSYWFNVILLSCYVKFSPSCSHSWTGFSKEAFQELYDFSKIAFPSAVMVCLELWSFELLVLASGLLPNPVLETSVLSICLNTSLTIWQISVGLGGAASIRVSNELGAGNPQVAKLAVYVIVGIAVAEGIVVVTVLLSIRKILGHAFSSDPKIIAYAASMIPIVACGNFLDGLQCVLSGVARGCGWQKIGACVNLGSYYLVGVPLGLLLGFHFHIGGRGLWLGIVTALSVQVLCLSLVTIFTNWDKEAKKATNRVGSSDDKDGDVQ | failed |
| MSVIIAANNLCLQYQQNEPVIKHANLRIKRKDFVFISGPSGSGKSTLLRSFYGDLKLFSGKLEVCNINMNNASKATILDLRKNIGVVFQDYKLIQDYTIEQNIKLPMVICGIKKEECHLQLEKLLGHIDLRHKANRYPKELSGGEQQRVAMARAMANCPELILADEPTGNLDDYSSDKIWSLLRGMNTQLNATIVVVTHKFPKNFSAYHRKFYIEDGEVYEYS | failed |
| MRIQMATKSSKKYKGVYCDNKGKIFYQIDLGIDPVTGKRVQKKARKNQYGKTFETMKEAYDELVRIKYEFANKVHLENYNMTFENYMNTIYLRAYKQKVQSVTYKTALPHHKLFIQYFGSKPLKAITPRDCEAFRLHIIENYSENYAKNLWSRFKACMGYAERLGYISDMPCKALDNPRGKHPETPFWTYAEFQTFIKSFDLHDYEELQRFTAIWLYYMTGVRVSEGLSLCWEDIDFDKKFLKVHTTLEKDENGNWYRKDQTKTPAGERLIELDDITIEVLQVWRKNQFANQDTDFIISRFGDPFCKSTICRIIKRKAQQVGVPVITGKGLRHSHASYLINVLKKDILYVARRMGHADKSTTLNTYSHWFNALDKTVSEEITQNIKSAGLDSILCQNSCQTSN | failed |
| MSLLDFYIIWRGDMLFATVVPIAYFLLYLKNKQVTFVFLKFVMAFVICLYWATYACTFFYSYYDVIGWFKILIIPVFSIYSGFVLHLLKSKKKKVFFLISIVYIIFWCILIFWHCMSSM | failed |
| MVDADGIYYLGPEGSFTHEAASLFKGKDLKAESTISLVFKRVYERESSIGIVPIENSLEGPVNETLDNLYNYDNIYVIGEIEKKIELVLAARSDNLSQIKRIYSHPHAFNEAREKLKELGFNEYIPVESTSKAAKIVSQDSEAAAICSNFAAKLYNLKVLITISSHNNYTRFIVLSKEMNSNGNKSMILFTVPHKPGALYKVLQVFYEYNINISMIYSRPLKSIPWQYYFYLEYEGGISNREFIEKLVKSTSVLKIKGSFSKLNNDPGF | failed |
| RQRSLSTSGESLYHVLGLDKNATSDDIKKSYRKLALKYHPDKNPDNPEAADKFKEINNAHAILTDATKRNIYDKYGSLGLYVAEQFGEENVNTYFV | not failed |
| TRKVLVLDLDNTLWGGVIGDDGIEGIVIGEGSARGEAFKAFQLYCRALRERGILLAVSSKNDPERALAAFDHPEMVLRRSDFAAFVANWEDKGQGLQRIAQELNLGLEALVFFDDNPAERALLREQFPAVAVPEVPEEPETYIRCLAAAGLFEAV | failed |
| MPGTGLPIRGRRDPETIETRCLNNDQDSRLALIHAWLQTLPGSLGLRPETMEPASSDASFRRYFRLQAAAGTLIVMDAPPPHEDVRPFVHIDGLLREAGVNVPEIVAQDAGQGLLLLSDLGQDTFYQRIRAGISDAQLQSMYRDTLATLVRLQQASTAGLPAYDGARLAAELELFPEWYVGRHHGVTLDDKTAAALRQIFGLLAAEGDTGHRVLVHRDFHSPNLMVCDEPRYGPNPGVIDFQDALAGPLTYDLASLVTDARTTWEEPQQLDWAIRYWELARAAGLPVDADFAQFHRAYEWTGLQRNLRILGVFARLNHRDGKSIYLSHMPRVSGYVRQVAQRYGAFAPLLRLLDKLDDRQVQVGYTF | failed |
| MTEKKIDFKKEEKKFYAPKRKPERIFVPEMNFLMVDGKGDPDGEEYQKAVQSLYAIAYTIKMSKMGETRLDGYSDFVVPPLEGFWWSEGKFDLKDRDAWLWTSILRQPDFVTEEVLEWAKEVARKKKPDV | failed |
| SVQEAPAALPTEPGPSPVPAFLGKLWALVGDPGTDHLIRWSPSGTSFLVSDQSRFAKEVLPQYFKHSNMASFVRQLNMYGFRKVVSIEQGGLLRPERDHVEFQHPSFVRGREQLLERVRRKVPALRGDDGRWRPEDLGRLLGEVQALRGVQESTEARLRELRQQNEILWREVVTLRQSHGQQHRVIGKLIQCLFGPLQAGPSNAGGKRKLSLMLDEGSSCPTPAKFNTCPLPGALLQDPYFIQSPLPETNLGLSPHRARGPIISDIPEDSPSPEGTRLSPSSDGRREKGLALLKEEPASPGGDGEAGLALAPNECDFCVTAPPPLPVAVVQAILEGKGSFSPEGPRNAQQPEPGDPREIPDRGPLGLESGDRSPESLLPPMLLQPPQESVEPAGPLDVLGPSLQGREWTLMDLDMELSLMQPLVPERGEPELAVKGLNSPSPGKDPTLGAPLLLDVQAALGGPALGLPGALTIYSTPESRTASYLGPEASPSP | not failed |
| MSQQSSSPTKEDNNSSSPVVPNPDSVPPQLSSPALFYSSSSSQGDIYGRNNSQNLSQGEGNIRAAIGSSPLNFPSSSQRQNSDVFQSQGRQGRIRSSASASGRSRYHSDLRSDRALPTSSSSLGRNGQNRVHMRRNDIHTSDLSSPRRIVDFDTRSGVNTLDTSSSSAPPSEASEPLRIIWGTNVSIQECTTNFRNFLMSFKYKFRKILDEREEFINNTTDEELYYIKQLNEMRELGTSNLNLDARNLLAYKQTEDLYHQLLNYPQEVISIMDQTIKDCMVSLIVDNNLDYDLDEIETKFYKVRPYNVGSCKGMRELNPNDIDKLINLKGLVLRSTPVIPDMKVAFFKCNVCDHTMAVEIDRGVIQEPARCERIDCNEPNSMSLIHNRCSFADKQVIKLQETPDFVPDGQTPHSISLCVYDELVDSCRAGDRIEVTGTFRSIPIRANSRQRVLKSLYKTYVDVVHVKKVSDKRLDVDTSTIEQELMQNKVDHNEVEEVRQITDQDLAKIREVAAREDLYSLLARSIAPSIYELEDVKKGILLQLFGGTNKTFTKGGRYRGDINILLCGDPSTSKSQILQYVHKITPRGVYTSGKGSSAVGLTAYITRDVDTKQLVLESGALVLSDGGVCCIDEFDKMSDSTRSVLHEVMEQQTISIAKAGIITTLNARSSILASANPIGSRYNPNLPVTENIDLPPPLLSRFDLVYLVLDKVDEKNDRELAKHLTNLYLEDKPEHISQDDVLPVEFLTMYISYAKEHIHPIITEAAKTELVRAYVGMRKMGDDSRSDEKRITATTRQLESMIRLAEAHAKMKLKNVVELEDVQEAVRLIRSAIKDYATDPKTGKIDMNLVQTGKSVIQRKLQEDLSREIMNVLKDQASDSMSFNELIKQINEHSQDRVESSDIQEALSRLQQEDKVIVLGEGVRRSVRLNNRV | failed |
| MKRTHLASFSNRDKTQEEEGEDGNGDNRVIMNHYKNYEAGLIPWPPKNYTCSFCRREFRSAQALGGHMNVHRRDRAKLRQIPSWLFEPHHHTPIANPNPNFSSSSSSSTTTAHLEPSLTNQRSKTTPFPSARFDLLDSTTSYGGLMMDREKNKSNVCSREIKKSAIDACHSVRCEISRGDLMNKKDDQVMGLELGMSLRNPNQVLDLELRLGYL | not failed |
| MKYMIPDEEFIRREGVPITKEEIRAVSIGKLNLNKDDVVVDVGCGSGGMTVEIAKRCKFVYAIDYLDGAIEVTKQNLAKFNIKNCQIIKGRAEDVLDKLEFNKAFIGGTKNIEKIIEILDKKKINHIVANTIVLENAAKIINEFESRGYNVDAVNVFISYAKKIPSGHMFLAKNPITIIKAVR | not failed |
| MILNRQTVALMTAGLLAFNSCSLKQMVKMAKDQELTVTPSPLEVHGDSVAFDISATLPVKMLKKNKIYSVSTFYKSGDNKVELGSFDFVSTDYPDAKTTAPQIKKHQAFAYKPEIGNGDLLAVGTASNLDKTKTKSTEEFPIAKGLITTSRLVKDYSYVAYADHGYNNKEELIASTVNFYFEQGKSVLRSSEMKGQNAKFLDAFITAKHVTRTISVIGQHSPEGTETKNTNLANERSVVIEKYVKARMKHFKQDSLVNTIQFVTKGDIKDFEPMKAEIAKSTKLTPEQKSELLNIIAGSGDFTSKQQQIEKLPYYNKSVLAQLYPSLRTARTEIWTVKPKKTDAQISLLAGQITSGKVSVDTLSVEELGYAGTLTPILSEKAAIYEALAKKTDNWVAYNNLGAVYVEMAKVEVDQNKKTELVNKAINTLEMSIKKQDNGEAHVNLASAYILSGVKTSARDEANKAVASNASDAVKKGANGILGTVDIKDGKYELALQDFSKSNDSIQVKFNTALASLLKKDFNTAKAGFANYTAAAPNDAAGFYLAAVTAARLKDEATLTTNLKKAKQLSPKFGERAVSDMEFYDYWNSDNFKNALK | failed |
| MTARNILSYSYEEYVEKITAFHGYPAPGVLIGGFMVDLAVKNLPEGILYDAICETRTCLPDAVQLLTPCTFGNGWLTVLPMGLFAVSLYDKFTGEGVRVFLDVEKMGPWQEIRNWFLKLKTKKEQDSERLFKEIREAGPDILELRNVKLKPGFLEKKHKGKIVLCPQCREAYPAQDGELCLSCQGGSPYL | not failed |
| MSLSNKIFTHSLPMRYADFPTLVDALDYAALSSAGMNFYDRRCQLEDQLEYQTLKARAEAGAKRLLSLNLKKGDRVALIAETSSEFVEAFFACQYAGLVAVPLAIPMGVGQRDSWSAKLQGLLASCQPAAIITGDEWLPLVNAATHDNPELHVLSHAWFKALPEADVALQRPVPNDIAYLQYTSGSTRFPRGVIITHREVMANLRAISHDGIKLRPGDRCVSWLPFYHDMGLVGFLLTPVATQLSVDYLRTQDFAMRPLQWLKLISKNRGTVSVAPPFGYELCQRRVNEKDLAELDLSCWRVAGIGAEPISAEQLHQFAECFRQVNFDNKTFMPCYGLAENALAVSFSDEASGVVVNEVDRDILEYQGKAVAPGAETRAVSTFVNCGKALPEHGIEIRNEAGMPVAERVVGHICISGPSLMSGYFGDQVSQDEIAATGWLDTGDLGYLLDGYLYVTGRIKDLIIIRGRNIWPQDIEYIAEQEPEIHSGDAIAFVTAQEKIILQIQCRISDEERRGQLIHALAARIQSEFGVTAAIDLLPPHSIPRTSSGKPARAEAKKRYQKAYAASLNVQESLAEGHHHHHH | not failed |
| MSFVAGVIRRLDETVVNRIAAGEVIQRPANAIKEMIENCLDAKSTSIQVIVKEGGLKLIQIQDNGTGIRKEDLDIVCERFTTSKLQSFEDLASISTYGFRGEALASISHVAHVTITTKTADGKCAYRASYSDGKLKAPPKPCAGNQGTQITVEDLFYNIATRRKALKNPSEEYGKILEVVGRYSVHNAGISFSVKKQGETVADVRTLPNASTVDNIRSIFGNAVSRELIEIGCEDKTLAFKMNGYISNANYSVKKCIFLLFINHRLVESTSLRKAIETVYAAYLPKNTHPFLYLSLEISPQNVDVNVHPTKHEVHFLHEESILERVQQHIESKLLGSNSSRMYFTQTLLPGLAGPSGEMVK | failed |
| MNLYFRLFWLLFWRTRHCRKIDFLGTSRITYRALPSDCDINFHLTNSRYPAFMDLARTYMLAEMGLLKRFLKLKWMPIVNAAEFTYIRDIKPLKKFEIETKVVGWDEKYFYIEQRFISERGLHCIVHVRGVFVCKGKQIPLEVLVKEAGYTAPAPELPPEVVKWKAFLQLKKERNL | failed |
| MWKTASDKGLGHLLRDVWSLLNEEERELLDKEIQPFPCKKASTVFSEGDIPNNLFYLYEGKIKILREGVYGRFHISRIVKPGQFFGMRPYFAEETCSSTAIAVENSKVLAIPVEAIEALLKGNTSFCRYFLKALAKELGYAERRTVTLTQKHVRGRLAETLLILKENFGFENDGATLSIYLSREELATLSNMTVSNAIRTLSTFVSERMLALDGKRIKIIDCDRLQKTARSG | not failed |
